Tests used:
[1] = biological target: CmTic110B (Cyanidioschyzon merolae 10D); experiment: SEC + other: small-angle X-ray scattering
[2] = biological target: CmTic110C (Cyanidioschyzon merolae 10D); experiment: SEC + other: small-angle X-ray scattering

| stoichiometry N [1] | stoichiometry N [2] | Substance |
| --- | --- | --- |
| 2 |  | CmTic110B (domain or fragment) |
|  | 2 | CmTic110C (domain or fragment) |

— paper PMC3823011
